The experiment has as its target SARS-CoV-2 WT RBD (SARS-CoV-2, UniProt P0DTC2). As to the kind of experiment: BLI.

B1: rabbit monoclonal antibody (RmAb) 1H1, IgG (antibody, V domains shown)
VH: QSLEESGGDLVKPGASLTLTCTASGFSFSSGYDMCWVRQAPGKGLEWIACIGTGSSGNIYYASWAKGRFTISKTSSTTVTLQMTSLTAADTATYFCARDDADYAGPDYFNLWGPGTLVTVSS
VL: DIVMTQTPASVSEPVGGTVTIKCQASESISNWLAWYQQKPGQPPKLLIYAAFTLASGVPSRFKGSGSGTQFTLTINGVECADAATYYCQQTYSSRDVDNVFGGGTEVVVK
For orientation: Kd means the constant that tells how readily two partners part at equilibrium. B1 gave a Kd of 0.0898 nM.

The values above are taken from PMC10069731 (2023).
